Laboratory results: publication PMC10933417

Experiments:
[1] = target: ZNF827 wild-type;RPA heterotrimer (Homo sapiens;Homo sapiens?, UniProt Q17R98;P27694;P15927;P35244 1-1081;1-616;1-270;1-121, |); assay: EMSA; 0.8 mM ZnCl2; intermediate band only with both proteins; RPA partly displaces ZNF827; 20 mM HEPES-KOH pH 7.9, 100 mM KCl, 0.8 mM ZnCl2, 0.2 mM EDTA, 5% glycerol, 0.5 mM DTT, 0.5 mM PMSF, 6.25 ug/mL poly(dI:dC), 50 ng/uL BSA, ~0.5 nM probe, on ice; gel at 4 °C; conditions: protein: recombinant;recombinant; tags: HaloTag removed by TEV cleavage;; copies: 1;1;1;1; label: 32P (T4 PNK end label)
[2] = target: T1, ZNF827 wild-type (Homo sapiens, UniProt Q17R98 1-1081); assay: EMSA; 0.8 mM ZnCl2; 20 mM HEPES-KOH pH 7.9, 100 mM KCl, 0.8 mM ZnCl2, 0.2 mM EDTA, 5% glycerol, 0.5 mM DTT, 0.5 mM PMSF, 6.25 ug/mL poly(dI:dC), 50 ng/uL BSA, ~0.5 nM probe, on ice; gel at 4 °C; conditions: protein: recombinant, tags: HaloTag removed by TEV cleavage, label: 32P (T4 PNK end label)
T1 sequence: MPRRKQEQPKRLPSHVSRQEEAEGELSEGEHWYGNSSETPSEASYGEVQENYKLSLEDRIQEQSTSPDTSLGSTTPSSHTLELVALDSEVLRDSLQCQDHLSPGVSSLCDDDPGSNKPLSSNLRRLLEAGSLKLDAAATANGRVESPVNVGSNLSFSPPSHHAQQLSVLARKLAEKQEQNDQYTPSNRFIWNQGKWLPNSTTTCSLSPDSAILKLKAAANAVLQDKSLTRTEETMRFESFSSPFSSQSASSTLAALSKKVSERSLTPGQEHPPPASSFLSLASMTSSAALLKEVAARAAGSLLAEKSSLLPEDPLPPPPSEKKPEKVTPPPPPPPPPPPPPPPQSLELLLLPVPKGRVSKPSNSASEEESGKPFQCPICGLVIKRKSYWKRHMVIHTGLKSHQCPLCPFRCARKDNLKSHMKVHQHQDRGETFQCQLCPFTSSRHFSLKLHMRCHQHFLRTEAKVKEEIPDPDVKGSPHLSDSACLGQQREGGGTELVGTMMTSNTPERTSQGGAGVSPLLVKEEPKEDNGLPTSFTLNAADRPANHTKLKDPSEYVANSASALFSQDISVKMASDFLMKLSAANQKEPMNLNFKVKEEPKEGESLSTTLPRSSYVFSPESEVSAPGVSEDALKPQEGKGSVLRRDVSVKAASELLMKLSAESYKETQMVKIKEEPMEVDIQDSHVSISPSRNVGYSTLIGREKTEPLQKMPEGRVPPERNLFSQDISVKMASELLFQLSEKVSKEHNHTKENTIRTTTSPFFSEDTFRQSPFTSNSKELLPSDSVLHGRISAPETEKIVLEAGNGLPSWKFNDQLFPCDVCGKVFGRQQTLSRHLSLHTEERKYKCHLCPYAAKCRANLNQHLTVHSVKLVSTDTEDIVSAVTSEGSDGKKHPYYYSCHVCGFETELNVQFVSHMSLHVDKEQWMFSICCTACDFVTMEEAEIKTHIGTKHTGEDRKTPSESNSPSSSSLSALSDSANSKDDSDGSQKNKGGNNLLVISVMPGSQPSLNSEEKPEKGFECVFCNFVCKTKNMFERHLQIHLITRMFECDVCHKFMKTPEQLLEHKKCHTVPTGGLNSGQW

[3] = target: RPA heterotrimer (UniProt P27694;P15927;P35244 1-616;1-270;1-121); assay: as above; conditions: protein: recombinant; copies: 1;1;1; label: 32P (T4 PNK end label)
[4] = target: T2, ZNF827 ZnFΔ1-3 (Homo sapiens, UniProt Q17R98 1-373+456-1081, internal_change); assay: as above; conditions: protein: recombinant, tags: HaloTag removed by TEV cleavage, label: 32P (T4 PNK end label)
T2 sequence: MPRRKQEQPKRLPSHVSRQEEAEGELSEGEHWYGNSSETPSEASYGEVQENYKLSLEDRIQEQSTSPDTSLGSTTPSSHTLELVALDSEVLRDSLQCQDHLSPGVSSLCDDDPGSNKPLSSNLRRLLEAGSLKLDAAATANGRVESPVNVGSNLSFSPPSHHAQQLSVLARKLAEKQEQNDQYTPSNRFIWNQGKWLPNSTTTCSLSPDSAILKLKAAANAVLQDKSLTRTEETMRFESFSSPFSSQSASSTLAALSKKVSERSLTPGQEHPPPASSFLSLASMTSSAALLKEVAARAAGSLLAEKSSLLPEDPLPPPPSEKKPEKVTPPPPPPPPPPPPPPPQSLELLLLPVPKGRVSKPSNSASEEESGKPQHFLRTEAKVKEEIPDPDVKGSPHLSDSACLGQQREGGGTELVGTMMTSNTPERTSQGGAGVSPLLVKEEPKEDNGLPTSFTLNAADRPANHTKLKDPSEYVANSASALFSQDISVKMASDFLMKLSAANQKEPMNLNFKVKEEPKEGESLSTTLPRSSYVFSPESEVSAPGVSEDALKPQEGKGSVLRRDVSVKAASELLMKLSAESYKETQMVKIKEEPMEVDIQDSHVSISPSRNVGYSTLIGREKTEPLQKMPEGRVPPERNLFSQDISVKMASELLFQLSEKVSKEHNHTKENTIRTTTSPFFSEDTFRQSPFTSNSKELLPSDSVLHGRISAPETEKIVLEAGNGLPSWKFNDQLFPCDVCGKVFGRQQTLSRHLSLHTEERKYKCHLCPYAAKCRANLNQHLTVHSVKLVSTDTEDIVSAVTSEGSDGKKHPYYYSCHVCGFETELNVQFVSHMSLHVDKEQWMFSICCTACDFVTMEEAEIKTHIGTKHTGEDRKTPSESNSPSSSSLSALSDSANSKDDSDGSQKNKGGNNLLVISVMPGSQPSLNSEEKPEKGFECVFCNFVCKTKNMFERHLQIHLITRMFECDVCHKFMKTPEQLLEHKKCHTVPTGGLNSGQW

[5] = target: T3, ZNF827 ZnFΔ4-9 (Homo sapiens, UniProt Q17R98 1-816+1070-1081, internal_change); assay: as above; conditions: protein: recombinant; tags: HaloTag removed by TEV cleavage; label: 32P (T4 PNK end label); blunt
T3 sequence: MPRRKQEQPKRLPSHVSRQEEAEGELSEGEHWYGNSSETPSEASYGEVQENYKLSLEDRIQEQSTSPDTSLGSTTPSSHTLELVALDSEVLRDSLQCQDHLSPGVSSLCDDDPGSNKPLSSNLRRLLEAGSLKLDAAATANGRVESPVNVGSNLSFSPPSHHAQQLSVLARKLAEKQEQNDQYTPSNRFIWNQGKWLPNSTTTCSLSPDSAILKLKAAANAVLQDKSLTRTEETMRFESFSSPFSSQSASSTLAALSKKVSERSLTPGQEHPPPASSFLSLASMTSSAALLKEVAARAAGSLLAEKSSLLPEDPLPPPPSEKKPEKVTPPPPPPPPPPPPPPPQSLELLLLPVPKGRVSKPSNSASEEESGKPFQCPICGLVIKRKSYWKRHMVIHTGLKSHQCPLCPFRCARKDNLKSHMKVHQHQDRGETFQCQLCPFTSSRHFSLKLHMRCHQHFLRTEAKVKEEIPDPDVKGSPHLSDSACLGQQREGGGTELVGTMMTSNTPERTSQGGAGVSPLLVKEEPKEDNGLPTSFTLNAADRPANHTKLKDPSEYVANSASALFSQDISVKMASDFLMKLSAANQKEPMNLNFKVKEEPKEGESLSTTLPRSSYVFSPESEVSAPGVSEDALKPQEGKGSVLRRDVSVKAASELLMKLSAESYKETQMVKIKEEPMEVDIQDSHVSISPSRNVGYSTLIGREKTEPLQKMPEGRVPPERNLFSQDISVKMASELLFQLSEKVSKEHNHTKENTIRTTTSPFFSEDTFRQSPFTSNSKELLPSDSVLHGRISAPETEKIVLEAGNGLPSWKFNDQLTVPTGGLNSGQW

ZNF827 wild-type;RPA heterotrimer, sequence (P27694 whole entry, chain 2 of 3): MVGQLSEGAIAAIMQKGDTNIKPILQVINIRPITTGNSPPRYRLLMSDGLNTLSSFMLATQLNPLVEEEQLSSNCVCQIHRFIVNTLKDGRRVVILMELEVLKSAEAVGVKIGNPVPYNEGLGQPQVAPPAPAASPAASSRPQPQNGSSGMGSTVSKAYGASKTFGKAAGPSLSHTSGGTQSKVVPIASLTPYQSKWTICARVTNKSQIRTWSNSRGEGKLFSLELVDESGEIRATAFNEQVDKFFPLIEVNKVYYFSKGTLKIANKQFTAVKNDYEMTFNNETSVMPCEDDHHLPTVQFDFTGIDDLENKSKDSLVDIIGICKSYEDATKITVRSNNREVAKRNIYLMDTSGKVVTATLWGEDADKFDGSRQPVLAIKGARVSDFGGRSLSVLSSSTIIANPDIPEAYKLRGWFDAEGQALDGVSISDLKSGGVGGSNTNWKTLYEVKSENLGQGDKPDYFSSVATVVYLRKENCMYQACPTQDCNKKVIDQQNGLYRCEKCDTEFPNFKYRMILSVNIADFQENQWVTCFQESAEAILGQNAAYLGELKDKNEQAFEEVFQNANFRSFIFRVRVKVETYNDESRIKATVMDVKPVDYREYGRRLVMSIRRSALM
ZNF827 wild-type;RPA heterotrimer, sequence (P15927 whole entry, chain 3 of 3): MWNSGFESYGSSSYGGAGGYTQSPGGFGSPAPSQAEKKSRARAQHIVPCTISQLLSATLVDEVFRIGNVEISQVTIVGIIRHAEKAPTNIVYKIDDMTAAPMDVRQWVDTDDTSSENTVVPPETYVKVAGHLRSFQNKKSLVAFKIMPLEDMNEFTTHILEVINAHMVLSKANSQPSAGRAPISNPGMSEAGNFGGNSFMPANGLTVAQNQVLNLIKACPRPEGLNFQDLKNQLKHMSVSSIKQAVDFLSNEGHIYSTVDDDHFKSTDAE
ZNF827 wild-type;RPA heterotrimer, sequence (P35244 whole entry, chain 4 of 3): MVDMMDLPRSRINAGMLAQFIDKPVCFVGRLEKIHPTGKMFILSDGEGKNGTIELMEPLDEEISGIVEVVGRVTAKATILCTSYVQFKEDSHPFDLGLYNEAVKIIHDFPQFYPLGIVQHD
RPA heterotrimer, sequence (P27694 whole entry, chain 1 of 3): as the sequence (P27694 whole entry, chain 2 of 3) above
RPA heterotrimer, sequence (P15927 whole entry, chain 2 of 3): as the sequence (P15927 whole entry, chain 3 of 3) above
RPA heterotrimer, sequence (P35244 whole entry, chain 3 of 3): as the sequence (P35244 whole entry, chain 4 of 3) above

B1: ssDNA pentaprobe (ssDNA)
DNA: CGCTCTATTCTACTGTCCTGTGCATTCAATCGTTGAGTTCGATCTAGTCTCGTCTAACCCTCCCCTGCTCCGCTGGTCTGGCCTCGCCTATCCTACCCAT
binding result [1]: binds
binding result [2]: binds
binding result [3]: binds
binding result [4]: no binding

B2: dsDNA pentaprobe (dsDNA)
DNA 1: B1 DNA
DNA 2: ATGGGTAGGATAGGCGAGGCCAGACCAGCGGAGCAGGGGAGGGTTAGACGAGACTAGATCGAACTCAACGATTGAATGCACAGGACAGTAGAATAGAGCG
binding result [5]: no binding
binding result ([2]; blunt): no binding
binding result ([4]; blunt): no binding
